Reference: patent US20130225506A1 (POLYPHOR, published 2013)
Numbered stars: 1 amine (or outer) side, 2 acyl side, 3 side chain; on linkers, the order of the positions; unused ones are H or OH. Square brackets hold non-standard residues; d marks the D form. Primed or numbered codes have the meaning given here. Pro((4S)NHBz) = proline with (4S)-NHBz, O=C(N[C@H]1C[C@@H](C(=O)[*:2])N([*:1])C1)c1ccccc1; (4S)Hyp(Bn) = O=C([C@@H]1C[C@H](OCc2ccccc2)CN1[*:1])[*:2]; dPro(cis-4-NH2) = N[C@H]1CN[C@@H](C(=O)O)C1; dPro(4S-NH2) = N[C@@H]1CN[C@@H](C(=O)O)C1; Oic = O=C(O)[C@@H]1C[C@@H]2CCCC[C@@H]2N1; 1Nal = N[C@@H](Cc1cccc2ccccc12)C(=O)O; 2Nal = N[C@@H](Cc1ccc2ccccc2c1)C(=O)O; Pro(3S-OH) = O=C(O)[C@H]1NCC[C@@H]1O; hArg = N=C(N)NCCCC[C@H](N)C(=O)O; 3Pal = N[C@@H](Cc1cccnc1)C(=O)O; Tic = O=C(O)[C@@H]1Cc2ccccc2CN1; d3Pal = N[C@H](Cc1cccnc1)C(=O)O; dHyp = O=C(O)[C@H]1C[C@H](O)CN1; Agb = N=C(N)NCC[C@H](N)C(=O)O; dDab = NCC[C@@H](N)C(=O)O; Orn = NCCC[C@H](N)C(=O)O; Dab = NCC[C@H](N)C(=O)O; Pip′ = not defined here; Mor = not defined here

Target: chemokine receptor CXCR7 (UniProt P25106 1-362, limits assumed)
Experiment: cell-based or functional assay

chemokine receptor CXCR7, sequence (P25106 whole entry): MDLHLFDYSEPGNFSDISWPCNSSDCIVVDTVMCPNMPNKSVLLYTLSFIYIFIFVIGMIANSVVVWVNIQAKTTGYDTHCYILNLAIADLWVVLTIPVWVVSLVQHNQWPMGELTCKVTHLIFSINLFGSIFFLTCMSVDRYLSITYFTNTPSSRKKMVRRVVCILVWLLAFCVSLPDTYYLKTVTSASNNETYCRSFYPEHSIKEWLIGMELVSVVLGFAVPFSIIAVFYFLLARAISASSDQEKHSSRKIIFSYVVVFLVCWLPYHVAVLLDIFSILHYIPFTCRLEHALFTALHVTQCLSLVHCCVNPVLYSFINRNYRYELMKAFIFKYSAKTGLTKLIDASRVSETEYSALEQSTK

Binder | β-Arrestin EC50
cyclo(I[dR]R[2Nal][dP][Pro(3S-OH)]) (SMILES CC[C@H](C)[C@@H]1NC(=O)[C@@H]2[C@@H](O)CCN2C(=O)[C@H]2CCCN2C(=O)[C@H](Cc2ccc3ccccc3c2)NC(=O)[C@H](CCCNC(=N)N)NC(=O)[C@@H](CCCNC(=N)N)NC1=O) [cyclo(-Ile-^DArg-Arg-2Nal-^DPro-Pro((3S)OH)-)] | 76.8 nM
cyclo(R[dF]WR[dPro(4S-NH2)][Tic]) (SMILES N=C(N)NCCC[C@@H]1NC(=O)[C@@H]2Cc3ccccc3CN2C(=O)[C@H]2C[C@H](N)CN2C(=O)[C@H](CCCNC(=N)N)NC(=O)[C@H](Cc2c[nH]c3ccccc23)NC(=O)[C@@H](Cc2ccccc2)NC1=O) [cyclo(-Arg-^DPhe-Trp-Arg-^DPro((4S)NH2)-Tic-)] | 13.1 nM
cyclo(R[dF]WR[dPro(cis-4-NH2)][Oic]) (SMILES N=C(N)NCCC[C@@H]1NC(=O)[C@@H]2C[C@@H]3CCCC[C@@H]3N2C(=O)[C@H]2C[C@@H](N)CN2C(=O)[C@H](CCCNC(=N)N)NC(=O)[C@H](Cc2c[nH]c3ccccc23)NC(=O)[C@@H](Cc2ccccc2)NC1=O) [cyclo(-Arg-^DPhe-Trp-Arg-^DPro((4R)NH2)-Oic-)] | 20.5 nM
cyclo(R[dF]WR[dPro(cis-4-NH2)][Tic]) (SMILES N=C(N)NCCC[C@@H]1NC(=O)[C@@H]2Cc3ccccc3CN2C(=O)[C@H]2C[C@@H](N)CN2C(=O)[C@H](CCCNC(=N)N)NC(=O)[C@H](Cc2c[nH]c3ccccc23)NC(=O)[C@@H](Cc2ccccc2)NC1=O) [cyclo(-Arg-^DPhe-Trp-Arg-^DPro((4R)NH2)-Tic-)] | 248 nM
cyclo([Pip′][dF]WR[dPro(cis-4-NH2)][Tic]) [cyclo(-Pip-^DPhe-Trp-Arg-^DPro((4R)NH2)-Tic-)] | 882 nM
cyclo(I[dR]KW[dP]T) (SMILES CC[C@H](C)[C@@H]1NC(=O)[C@H]([C@@H](C)O)NC(=O)[C@H]2CCCN2C(=O)[C@H](Cc2c[nH]c3ccccc23)NC(=O)[C@H](CCCCN)NC(=O)[C@@H](CCCNC(=N)N)NC1=O) [cyclo(-Ile-^DArg-Lys-Trp-^DPro-Thr-)] | 78.7 nM
cyclo(R[dF]W[hArg][dPro(cis-4-NH2)][Tic]) (SMILES N=C(N)NCCCC[C@@H]1NC(=O)[C@H](Cc2c[nH]c3ccccc23)NC(=O)[C@@H](Cc2ccccc2)NC(=O)[C@H](CCCNC(=N)N)NC(=O)[C@@H]2Cc3ccccc3CN2C(=O)[C@H]2C[C@@H](N)CN2C1=O) [cyclo(-Arg-^DPhe-Trp-hArg-^DPro((4R)NH2)-Tic-)] | 352 nM
cyclo(I[dDab]RW[dP]T) (SMILES CC[C@H](C)[C@@H]1NC(=O)[C@H]([C@@H](C)O)NC(=O)[C@H]2CCCN2C(=O)[C@H](Cc2c[nH]c3ccccc23)NC(=O)[C@H](CCCNC(=N)N)NC(=O)[C@@H](CCN)NC1=O) [cyclo(-Ile-^DDab-Arg-Trp-^DPro-Thr-)] | 48.4 nM
cyclo([3Pal][dF]WR[dPro(cis-4-NH2)][Tic]) (SMILES N=C(N)NCCC[C@@H]1NC(=O)[C@H](Cc2c[nH]c3ccccc23)NC(=O)[C@@H](Cc2ccccc2)NC(=O)[C@H](Cc2cccnc2)NC(=O)[C@@H]2Cc3ccccc3CN2C(=O)[C@H]2C[C@@H](N)CN2C1=O) [cyclo(-3Pal-^DPhe-Trp-Arg-^DPro((4R)NH2)-Tic-)] | 5.1 nM
cyclo(W[dF]WR[dHyp][(4S)Hyp(Bn)]) (SMILES N=C(N)NCCC[C@@H]1NC(=O)[C@H](Cc2c[nH]c3ccccc23)NC(=O)[C@@H](Cc2ccccc2)NC(=O)[C@H](Cc2c[nH]c3ccccc23)NC(=O)[C@@H]2C[C@H](OCc3ccccc3)CN2C(=O)[C@H]2C[C@H](O)CN2C1=O) [cyclo(-Trp-^DPhe-Trp-Arg-^DPro((4S)OH)-(4S)-Hyp(Bn)-)] | 7.6 nM
cyclo(W[dF]WR[dPro(cis-4-NH2)][(4S)Hyp(Bn)]) (SMILES N=C(N)NCCC[C@@H]1NC(=O)[C@H](Cc2c[nH]c3ccccc23)NC(=O)[C@@H](Cc2ccccc2)NC(=O)[C@H](Cc2c[nH]c3ccccc23)NC(=O)[C@@H]2C[C@H](OCc3ccccc3)CN2C(=O)[C@H]2C[C@@H](N)CN2C1=O) [cyclo(-Trp-^DPhe-Trp-Arg-^DPro((4R)NH2)-(4S)-Hyp(Bn)-)] | 6.6 nM
cyclo(W[d3Pal]WR[dPro(cis-4-NH2)][Tic]) (SMILES N=C(N)NCCC[C@@H]1NC(=O)[C@H](Cc2c[nH]c3ccccc23)NC(=O)[C@@H](Cc2cccnc2)NC(=O)[C@H](Cc2c[nH]c3ccccc23)NC(=O)[C@@H]2Cc3ccccc3CN2C(=O)[C@H]2C[C@@H](N)CN2C1=O) [cyclo(-Trp-^D3Pal-Trp-Arg-^DPro((4R)NH2)-Tic-)] | 6.1 nM
cyclo(R[dF]WR[dP][(4S)Hyp(Bn)]) (SMILES N=C(N)NCCC[C@@H]1NC(=O)[C@@H]2C[C@H](OCc3ccccc3)CN2C(=O)[C@H]2CCCN2C(=O)[C@H](CCCNC(=N)N)NC(=O)[C@H](Cc2c[nH]c3ccccc23)NC(=O)[C@@H](Cc2ccccc2)NC1=O) [cyclo(-Arg-^DPhe-Trp-Arg-^DPro-(4S)-Hyp(Bn)-)] | 76.9 nM
cyclo([1Nal][dR]RW[dP][Pro(3S-OH)]) (SMILES N=C(N)NCCC[C@@H]1NC(=O)[C@@H](CCCNC(=N)N)NC(=O)[C@H](Cc2cccc3ccccc23)NC(=O)[C@@H]2[C@@H](O)CCN2C(=O)[C@H]2CCCN2C(=O)[C@H](Cc2c[nH]c3ccccc23)NC1=O) [cyclo(-1Nal-^DArg-Arg-Trp-^DPro-Pro((3S)OH)-)] | 13.7 nM
cyclo(W[dF]WR[dPro(cis-4-NH2)][Oic]) (SMILES N=C(N)NCCC[C@@H]1NC(=O)[C@H](Cc2c[nH]c3ccccc23)NC(=O)[C@@H](Cc2ccccc2)NC(=O)[C@H](Cc2c[nH]c3ccccc23)NC(=O)[C@@H]2C[C@@H]3CCCC[C@@H]3N2C(=O)[C@H]2C[C@@H](N)CN2C1=O) [cyclo(-Trp-^DPhe-Trp-Arg-^DPro((4R)NH2)-Oic-)] | 20.9 nM
cyclo(H[dW]HW[dP][Pro((4S)NHBz)]) (SMILES O=C(N[C@H]1C[C@H]2C(=O)N[C@@H](Cc3c[nH]cn3)C(=O)N[C@H](Cc3c[nH]c4ccccc34)C(=O)N[C@@H](Cc3c[nH]cn3)C(=O)N[C@@H](Cc3c[nH]c4ccccc34)C(=O)N3CCC[C@@H]3C(=O)N2C1)c1ccccc1) [cyclo(-His-^DTrp-His-Trp-^DPro-Pro((4S)NHBz)-)] | 414 nM
cyclo(I[dR][Dab]W[dP]T) (SMILES CC[C@H](C)[C@@H]1NC(=O)[C@H]([C@@H](C)O)NC(=O)[C@H]2CCCN2C(=O)[C@H](Cc2c[nH]c3ccccc23)NC(=O)[C@H](CCN)NC(=O)[C@@H](CCCNC(=N)N)NC1=O) [cyclo(-Ile-^DArg-Dab-Trp-^DPro-Thr-)] | 87 nM
cyclo([Agb][dF]WR[dPro(cis-4-NH2)][Tic]) (SMILES N=C(N)NCCC[C@@H]1NC(=O)[C@H](Cc2c[nH]c3ccccc23)NC(=O)[C@@H](Cc2ccccc2)NC(=O)[C@H](CCNC(=N)N)NC(=O)[C@@H]2Cc3ccccc3CN2C(=O)[C@H]2C[C@@H](N)CN2C1=O) [cyclo(-Agb-^DPhe-Trp-Arg-^DPro((4R)NH2)-Tic-)] | 452 nM

The remaining lines, values ahead:

β-Arrestin EC50 | Binder
36.9 nM | cyclo(W[dF]WR[dP][Pro((4S)NH2)]) [cyclo(-Trp-^DPhe-Trp-Arg-^DPro-Pro((4S)NH2)-)]
132 nM | cyclo(W[dF]WR[dP][Mor]) (reading uncertain; also: printed as cyclo(-Trp-^DPhe-Trp-Arg-^DPro-Mor-)) [cyclo(-Trp-^DPhe-Trp-Arg-^DPro-Mor-)]
13.6 nM | cyclo(W[dF]W[Dab][dPro(cis-4-NH2)][Tic]) (SMILES NCC[C@@H]1NC(=O)[C@H](Cc2c[nH]c3ccccc23)NC(=O)[C@@H](Cc2ccccc2)NC(=O)[C@H](Cc2c[nH]c3ccccc23)NC(=O)[C@@H]2Cc3ccccc3CN2C(=O)[C@H]2C[C@@H](N)CN2C1=O) [cyclo(-Trp-^DPhe-Trp-Dab-^DPro((4R)NH2)-Tic-)]
12.2 nM | cyclo([hArg][dF]WR[dPro(cis-4-NH2)][Tic]) (SMILES N=C(N)NCCCC[C@@H]1NC(=O)[C@@H]2Cc3ccccc3CN2C(=O)[C@H]2C[C@@H](N)CN2C(=O)[C@H](CCCNC(=N)N)NC(=O)[C@H](Cc2c[nH]c3ccccc23)NC(=O)[C@@H](Cc2ccccc2)NC1=O) [cyclo(-hArg-^DPhe-Trp-Arg-^DPro((4R)NH2)-Tic-)]
26.1 nM | cyclo(W[dF]W[Orn][dPro(cis-4-NH2)][Tic]) (SMILES NCCC[C@@H]1NC(=O)[C@H](Cc2c[nH]c3ccccc23)NC(=O)[C@@H](Cc2ccccc2)NC(=O)[C@H](Cc2c[nH]c3ccccc23)NC(=O)[C@@H]2Cc3ccccc3CN2C(=O)[C@H]2C[C@@H](N)CN2C1=O) [cyclo(-Trp-^DPhe-Trp-Orn-^DPro((4R)NH2)-Tic-)]
20.9 nM | cyclo(Y[dF]WR[dPro(cis-4-NH2)][Tic]) (SMILES N=C(N)NCCC[C@@H]1NC(=O)[C@H](Cc2c[nH]c3ccccc23)NC(=O)[C@@H](Cc2ccccc2)NC(=O)[C@H](Cc2ccc(O)cc2)NC(=O)[C@@H]2Cc3ccccc3CN2C(=O)[C@H]2C[C@@H](N)CN2C1=O) [cyclo(-Tyr-^DPhe-Trp-Arg-^DPro((4R)NH2)-Tic-)]
138 nM | cyclo(W[dF]WK[dPro(cis-4-NH2)][Tic]) (SMILES NCCCC[C@@H]1NC(=O)[C@H](Cc2c[nH]c3ccccc23)NC(=O)[C@@H](Cc2ccccc2)NC(=O)[C@H](Cc2c[nH]c3ccccc23)NC(=O)[C@@H]2Cc3ccccc3CN2C(=O)[C@H]2C[C@@H](N)CN2C1=O) [cyclo(-Trp-^DPhe-Trp-Lys-^DPro((4R)NH2)-Tic-)]
20.4 nM | cyclo(W[dF]WH[dPro(cis-4-NH2)][Tic]) (SMILES N[C@@H]1C[C@@H]2C(=O)N3Cc4ccccc4C[C@H]3C(=O)N[C@@H](Cc3c[nH]c4ccccc34)C(=O)N[C@H](Cc3ccccc3)C(=O)N[C@@H](Cc3c[nH]c4ccccc34)C(=O)N[C@@H](Cc3c[nH]cn3)C(=O)N2C1) [cyclo(-Trp-^DPhe-Trp-His-^DPro((4R)NH2)-Tic-)]
26.9 nM | cyclo(W[dF]WR[dP][Pro((4R)NH2)]) [cyclo(-Trp-^DPhe-Trp-Arg-^DPro-Pro((4R)NH2)-)]
119 nM | cyclo(W[dF]WR[dP][Pro((4S)F)]) [cyclo(-Trp-^DPhe-Trp-Arg-^DPro-Pro((4S)F)-)]
